Laboratory results as given in patent US20100202970A1.

Experiments:
[1] = molecular target: PKA substrate (modified Kemptide containing a consensus phosphorylation site for Protein Kinase A) C-terminally tagged with the yellow fluorescent protein YPet; assay: cell-based or functional assay
[2] = molecular target: PKC substrate C-terminally tagged with the yellow fluorescent protein YPet; assay: cell-based or functional assay

## FHA1 (forkhead associated domain 1 of the yeast protein Rad53) tagged at its N-terminus with the cyan fluorescent protein Cerulean (from UniProt P22216 22-162)
[1]
  increase in yellow/cyan emission ratio (intermolecular FRET) after Forskolin in 1205-Lu cells co-expressing both constructs: 60%
[2]
  increase in yellow/cyan emission ratio (intermolecular FRET) after PMA in 1205-Lu cells co-expressing both constructs: 30%
